Measured values published in patent US20230295310A1 (ABCELLERA BIOLOGICS, published 2023).
Where a chain is given by its changes, count along the chain named.

B1: mAb 257 (antibody, V domains shown)
VH: QVQLQQSGPGLVKPSQTLSLTCAISGDSVSSNYASWNWIRQSPSRGLEWLGRTYYRSKWYNDFAVSVRSRVTINADTSKNQFSLHLSSVTPEDTAIYFCAREANGRGYFYYMDVWGKGTTVTVSS
VL: EIVLTQSPDFQSVTPKEKVTITCRASQSIGSSLHWYQQKPDQSPKLLIKYASQSISGVPSRFSGSGSGTVFTLTINSLEAEDAAAYFCHQSSGSPHTFGGGTKVEIK
notes: VH/VL only; the printed VH holds a letter U
B2: mAb 266 (antibody, V domains shown)
VH: B1 VH with N61I, R68K, V71L, S87R
VL: B1 VL
notes: VH/VL only
B3: mAb 267 (antibody, V domains shown)
VH: B1 VH with V29I, R68K, V71I, T72I, A75P, K79R, S87N, F98Y
VL: B1 VL with S65R, V70D
notes: VH/VL only
B4: mAb 258 (antibody, V domains shown)
VH: EVQLLESGGGLVQPGGSLRLSCAASGFTFSNYAMNWVRQAPGKGLEWVSVISNSGGTRLYVDSVKGRFTISRDNSKNTLYLQMSSLRAADTAVYYCAKDAAAALYYYYFYYMDVWGKGTTVTVSS
VL: B1 VL with I55F, V70D, A85T, F87Y, G93S, S94L, H96Y, G100Q, V104L
notes: VH/VL only
B5: mAb 264 (antibody, V domains shown)
VH: EVQLLESGGGLVQPGGSLRLSCVASGFTFRSSSMTWVRQAPGKGLEWVSGIRGSGGRTYDAESVKGRFTISRDNSKNTLYLQMNSLRAEDTAEYYCAKLYDYYNDYMDVWGKGTTVTVSS
VL: SYELTQPLSVSVALGQTARITCGGNNIGSKNVHWYQQKPGQAPVLVIYRDSNRPSGIPERFSGSNSGNTATLTISRAQAGDEADYYCQVWDSSTAVFGGGTQLTAL
notes: VH/VL only
B6: mAb 259 (antibody, V domains shown)
VH: B5 VH with Q3L, V23A, N74I, L86V
VL: B5 VL
notes: VH/VL only
B7: mAb 260 (antibody, V domains shown)
VH: B5 VH with T35A, T69I, N74T, A88G, Y95F
VL: B5 VL
notes: VH/VL only
B8: mAb 261 (antibody, V domains shown)
VH: EVQLLESGGGFMQPGGSLRLSCAVSGFTFRTSSMAWVRQAPGKGLEWVSGIRGSGGRTYDAESVKGRFTISRDISKNTLYLQMNNLRAEDTAEYYCAKLYDYYNDFMDVWGKGTTVIVSA
VL: B5 VL
notes: VH/VL only
B9: mAb 262 (antibody, V domains shown)
VH: B5 VH with Q3R, V23A, T35A, A40D, S49T, E62D
VL: B5 VL
notes: VH/VL only
B10: mAb 263 (antibody, V domains shown)
VH: EVQLLESGGGLVQPGGSLRLSCTPSGITFNNYAMTWVRQAPGKGLEWVSGISVSGGSTYYADSVMGRFTISRDSSKTLYLQMNSLRAEDTAVYYCAKFHSHYYYYMDVWGKGTTVTVSS
VL: B5 VL with N31D, S92R, S93R
notes: VH/VL only
B11: mAb 276 (antibody, V domains shown)
VH: EVQLVESGGGLVQPGGSLRLSCAASGIPFSTYSMNWVRQAPGKGLEWVSYISGSSRTIYYADSVKGRFTISRDNAKKLLFLQMNSLRDEDTAVYYCAREGDYYDSSGWAYWGQGTLVTVSS
VL: DIQMTQSPSSLSASVGDRVTITCRASQNIYKYLNWYEQKPGRAPKLLIYTTSNLQSGVPSRFSGSGSGTAFTLIISSLQPEDFATYYCQQSYGSPYTFGQGTKLEIK
notes: VH/VL only
B12: mAb 283 (antibody, V domains shown)
VH: QVHLVQSGAEVKKPGASVRVSCKASGYTFTGYYIHWLRQAPGQGLEWLGWINPNSGGTNYSQKFRGRVTMTRDTSISTAYMELSRLRSDDTAVYYCARDKVWEQQLVGGFDYWGQGTLVTVSS
VL: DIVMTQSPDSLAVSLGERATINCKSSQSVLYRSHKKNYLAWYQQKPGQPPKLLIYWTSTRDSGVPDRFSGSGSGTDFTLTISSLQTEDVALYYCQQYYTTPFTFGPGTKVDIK
notes: VH/VL only
B13: mAb 284 (antibody, V domains shown)
VH: EVQLLESGGGLVQPGGSLRLSCAASGFTFSSYAMSWVRQAPGKGLEWVSAISGSSGRTYYTDSVKGRFTISRDNSKNTLSLQMNSLRAEDTAVYYCAKKYSYYYYYMDVWGKGTTVTVSS
VL: B5 VL with R19K
notes: VH/VL only

The binders below were run against T1, human CD3 expressed on cells (Jurkat cells; human primary T cells) (human, UniProt P07766 23-207; P04234 22-171; P09693 23-182) (assay: flow cytometry, 25 nM, Jurkat cells).
T1 construct: whole, on cells
T1 sequence (P07766 23-207, chain 1 of 3): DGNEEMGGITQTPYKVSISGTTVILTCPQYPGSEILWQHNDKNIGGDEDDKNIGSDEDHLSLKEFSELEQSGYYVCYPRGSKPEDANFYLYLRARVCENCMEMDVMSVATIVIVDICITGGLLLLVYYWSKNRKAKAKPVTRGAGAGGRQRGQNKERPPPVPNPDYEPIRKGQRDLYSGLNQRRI
T1 sequence (P04234 22-171, chain 2 of 3): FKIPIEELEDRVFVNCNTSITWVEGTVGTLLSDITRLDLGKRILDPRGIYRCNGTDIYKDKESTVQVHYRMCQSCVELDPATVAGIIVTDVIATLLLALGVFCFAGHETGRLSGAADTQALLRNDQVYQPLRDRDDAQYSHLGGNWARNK
T1 sequence (P09693 23-182, chain 3 of 3): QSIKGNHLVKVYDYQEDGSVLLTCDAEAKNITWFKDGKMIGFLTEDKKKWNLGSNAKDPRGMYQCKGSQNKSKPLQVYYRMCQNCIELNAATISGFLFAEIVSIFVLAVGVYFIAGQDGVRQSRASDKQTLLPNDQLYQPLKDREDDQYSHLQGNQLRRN
Procedure, shortened: (§1)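 Flow cytometric binding was measured after cells were incubated with antibody (25 nM, PBS+2% FBS) at 4° C for 30 minutes. Signals were normalized to isotype to yield FOI, with ≥10 scored positive.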
In the case of B1, the “Binding (FOI)” value is reported as 62.3 FOI.
In the case of B2, the “Binding (FOI)” value is reported as 85 FOI.
B3 was tested, and the “Binding (FOI)” value was 61.3 FOI.
In the case of B4, the “Binding (FOI)” value is reported as 147 FOI.
With B5 the “Binding (FOI)” value was 174 FOI.
B6 was tested, and the “Binding (FOI)” value was 169 FOI.
B7 was tested, and the “Binding (FOI)” value was 178 FOI.
B8 was tested, and the “Binding (FOI)” value was 188 FOI.
For B9, the “Binding (FOI)” value was 165 FOI.
B10 was tested, and the “Binding (FOI)” value was 188 FOI.
With B11 the “Binding (FOI)” value was 156 FOI.
With B12 the “Binding (FOI)” value was 216 FOI.
In the case of B13, the “Binding (FOI)” value is reported as 226 FOI.

What follows are binders tested against T2, cynomolgus monkey CD3 expressed on cyno primary T cells (cynomolgus monkey, UniProt Q95LI5 22-198; Q95LI8 22-171; Q95LI7 23-181) (assay: flow cytometry, cyno primary T cells).
T2 construct: whole, on cells; CD3 complex on purified cynomolgus monkey CD3 pan T cells; also called cyno CD3
T2 sequence (Q95LI5 22-198, chain 1 of 3): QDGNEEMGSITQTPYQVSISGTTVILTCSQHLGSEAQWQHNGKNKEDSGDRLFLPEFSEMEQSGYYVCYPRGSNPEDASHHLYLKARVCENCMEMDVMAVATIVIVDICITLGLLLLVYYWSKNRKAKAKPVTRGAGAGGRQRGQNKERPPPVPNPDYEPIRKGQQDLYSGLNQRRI
T2 sequence (Q95LI8 22-171, chain 2 of 3): as the sequence (P04234 22-171, chain 2 of 3) above, with I5V, N15K, I20V, S32T, D33N, I34N, T64A, S74N, V83L, H141R counted along it
T2 sequence (Q95LI7 23-181, chain 3 of 3): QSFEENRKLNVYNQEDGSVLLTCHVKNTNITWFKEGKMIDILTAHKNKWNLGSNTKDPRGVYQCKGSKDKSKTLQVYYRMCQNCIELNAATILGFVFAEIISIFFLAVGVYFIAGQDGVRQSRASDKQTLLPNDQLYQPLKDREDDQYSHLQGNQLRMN
Procedure, shortened: as §1
B1: no binding (tested: FOI <10 (FOI >=10 = positive); 25 nM).
B2: no binding (tested: FOI <10 (FOI >=10 = positive); 25 nM).
B3: no binding (tested: FOI <10 (FOI >=10 = positive); 25 nM).
B4: no binding (tested: FOI <10 (FOI >=10 = positive); 25 nM).
B5: no binding (tested: FOI <10 (FOI >=10 = positive); 25 nM).
B6: no binding (tested: FOI <10 (FOI >=10 = positive); 25 nM).
B7: no binding (tested: FOI <10 (FOI >=10 = positive); 25 nM).
B8: no binding (tested: FOI <10 (FOI >=10 = positive); 25 nM).
B9: no binding (tested: FOI <10 (FOI >=10 = positive); 25 nM).
B10: no binding (tested: FOI <10 (FOI >=10 = positive); 25 nM).
B11: no binding (tested: FOI <10 (FOI >=10 = positive); 25 nM).
B12: no binding (tested: FOI <10 (FOI >=10 = positive); 25 nM).
B13: no binding (tested: FOI <10 (FOI >=10 = positive); 25 nM).

These binders were tested against T1, human CD3 expressed on cells (Jurkat …) (assay: flow cytometry, 25 nM, human primary T cells).
Procedure, shortened: as §1
For B1, the “Binding (FOI)” value was 77.7 FOI.
With B2 the “Binding (FOI)” value was 71.9 FOI.
With B3 the “Binding (FOI)” value was 88.8 FOI.
With B4 the “Binding (FOI)” value was 113 FOI.
In the case of B5, the “Binding (FOI)” value is reported as 220 FOI.
B6 was tested, and the “Binding (FOI)” value was 214 FOI.
For B7, the “Binding (FOI)” value was 219 FOI.
B8 was tested, and the “Binding (FOI)” value was 229 FOI.
With B9 the “Binding (FOI)” value was 219 FOI.
In the case of B10, the “Binding (FOI)” value is reported as 248 FOI.
In the case of B11, the “Binding (FOI)” value is reported as 149 FOI.
In the case of B12, the “Binding (FOI)” value is reported as 128 FOI.
In the case of B13, the “Binding (FOI)” value is reported as 209 FOI.
